This note sets out measurements from US20090226960A1.

One test concerns the target CD28 on Jurkat T cells (UniProt P10747). Kind of test: cell-based or functional assay.
The target of another test is LFA-1 on Jurkat T cells (UniProt P20701). Kind of test: cell-based or functional assay.
Chain of LFA-1 on Jurkat T cells (P20701 26-1170 limits assumed, chain 1 of 2): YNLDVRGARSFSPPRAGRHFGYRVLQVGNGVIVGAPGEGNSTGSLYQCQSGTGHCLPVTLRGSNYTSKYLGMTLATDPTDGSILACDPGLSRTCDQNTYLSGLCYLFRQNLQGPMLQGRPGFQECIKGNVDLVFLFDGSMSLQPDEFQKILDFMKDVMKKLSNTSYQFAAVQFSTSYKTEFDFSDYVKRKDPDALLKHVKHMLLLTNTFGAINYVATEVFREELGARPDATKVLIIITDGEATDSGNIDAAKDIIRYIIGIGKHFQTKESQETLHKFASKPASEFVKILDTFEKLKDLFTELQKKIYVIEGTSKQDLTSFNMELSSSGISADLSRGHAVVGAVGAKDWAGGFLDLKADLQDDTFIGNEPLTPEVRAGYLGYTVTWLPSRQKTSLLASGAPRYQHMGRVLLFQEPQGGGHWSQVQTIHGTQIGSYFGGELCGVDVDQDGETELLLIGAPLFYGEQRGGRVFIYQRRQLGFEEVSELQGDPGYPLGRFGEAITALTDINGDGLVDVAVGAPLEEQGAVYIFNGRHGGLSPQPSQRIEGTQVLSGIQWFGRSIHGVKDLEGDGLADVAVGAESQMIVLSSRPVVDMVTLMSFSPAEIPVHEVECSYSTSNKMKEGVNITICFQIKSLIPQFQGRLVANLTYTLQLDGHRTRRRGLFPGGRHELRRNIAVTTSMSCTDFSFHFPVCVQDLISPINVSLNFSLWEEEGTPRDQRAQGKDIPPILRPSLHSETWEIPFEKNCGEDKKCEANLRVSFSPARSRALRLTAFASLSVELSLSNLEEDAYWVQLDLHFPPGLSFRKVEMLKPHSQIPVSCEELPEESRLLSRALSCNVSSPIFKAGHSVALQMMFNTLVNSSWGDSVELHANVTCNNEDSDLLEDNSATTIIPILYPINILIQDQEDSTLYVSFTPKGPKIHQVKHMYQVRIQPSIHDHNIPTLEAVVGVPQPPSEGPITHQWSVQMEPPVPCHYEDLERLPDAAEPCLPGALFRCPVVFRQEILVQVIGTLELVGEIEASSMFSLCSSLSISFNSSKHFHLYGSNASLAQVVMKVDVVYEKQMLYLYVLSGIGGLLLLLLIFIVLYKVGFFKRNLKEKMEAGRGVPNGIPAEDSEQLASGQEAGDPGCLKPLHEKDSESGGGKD
Chain of LFA-1 on Jurkat T cells (P05107 23-769 limits assumed, chain 2 of 2, further chain): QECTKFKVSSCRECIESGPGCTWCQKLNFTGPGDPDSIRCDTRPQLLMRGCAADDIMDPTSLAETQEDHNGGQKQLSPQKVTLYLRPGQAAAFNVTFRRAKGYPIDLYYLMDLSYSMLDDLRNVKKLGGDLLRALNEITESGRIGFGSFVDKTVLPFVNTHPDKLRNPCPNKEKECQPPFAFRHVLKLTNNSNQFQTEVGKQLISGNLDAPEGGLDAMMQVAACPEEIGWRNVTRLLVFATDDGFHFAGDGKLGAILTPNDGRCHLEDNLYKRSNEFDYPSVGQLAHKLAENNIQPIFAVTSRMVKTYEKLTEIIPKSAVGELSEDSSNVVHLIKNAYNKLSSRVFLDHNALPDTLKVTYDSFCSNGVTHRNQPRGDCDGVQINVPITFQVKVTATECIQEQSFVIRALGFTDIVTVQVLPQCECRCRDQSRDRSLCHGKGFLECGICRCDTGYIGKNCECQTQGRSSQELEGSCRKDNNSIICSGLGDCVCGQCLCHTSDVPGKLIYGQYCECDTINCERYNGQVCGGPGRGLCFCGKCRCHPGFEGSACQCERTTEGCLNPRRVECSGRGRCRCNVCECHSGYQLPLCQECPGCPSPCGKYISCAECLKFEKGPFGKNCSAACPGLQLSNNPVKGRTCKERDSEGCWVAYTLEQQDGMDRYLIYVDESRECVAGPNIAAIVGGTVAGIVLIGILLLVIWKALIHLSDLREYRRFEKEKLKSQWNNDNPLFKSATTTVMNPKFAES

In turn, “GPI-tethered extracellular domain of human B7-1 expressed from pYBS101 (from UniProt P33681 35-242) (ligand)” came in with a Jurkat T cell adhesion to MembraneChip (fold against the control) in the test with CD28 on Jurkat T cells of 4. “GPI-tethered extracellular domain of human ICAM-1 expressed from pYBS101 (from UniProt P05362 28-480) (ligand)” showed a Jurkat T cell adhesion to MembraneChip (fold against the control) with LFA-1 on Jurkat T cells of 3.
